Test results reported in article PMC8503523, “Lilium regale Wilson WRKY2 Regulates Chitinase Gene Expression During the Response to the Root Rot Pathogen Fusarium oxysporum”.

Tests used:
LrWRKY2 [1] = molecular target: T1, LrWRKY2 (Lilium regale Wilson, UniProt A0A894THB0 1-343); assay: EMSA; 0.5 ug protein in 20 uL with 7 uL binding buffer (as printed: 100 mM Tris, 500 mM KCl, 10 mM DTT, 50% glycerol, 100 mM MgCl2, 1% NP-40, 1 M KCl, 200 mM EDTA, 1); settings: protein: recombinant, tags: His (pET-32a fusion)
T1 sequence: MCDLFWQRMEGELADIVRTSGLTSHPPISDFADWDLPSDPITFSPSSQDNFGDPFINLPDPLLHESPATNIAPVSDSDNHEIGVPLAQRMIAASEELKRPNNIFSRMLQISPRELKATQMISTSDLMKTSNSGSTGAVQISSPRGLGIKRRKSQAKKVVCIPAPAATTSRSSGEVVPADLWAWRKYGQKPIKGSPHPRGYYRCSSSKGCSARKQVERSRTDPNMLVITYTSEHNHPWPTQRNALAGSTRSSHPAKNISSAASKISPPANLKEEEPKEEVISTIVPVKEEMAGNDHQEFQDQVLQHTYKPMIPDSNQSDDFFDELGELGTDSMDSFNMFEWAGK

LrWRKY2 [2] = molecular target: T1, LrWRKY2; assay: competition EMSA; 50-fold excess over biotin-labeled N1; shift less intense; 0.5 ug protein in 20 uL with 7 uL binding buffer (as printed: 100 mM Tris, 500 mM KCl, 10 mM DTT, 50% glycerol, 100 mM MgCl2, 1% NP-40, 1 M KCl, 200 mM EDTA, 1); settings: protein: recombinant; tags: His (pET-32a fusion); (only one strand printed; duplex implied by 50-bp)

B1: LrCHI2 promoter W-box probe (dsDNA)
DNA 1: GGCAAACTTTTAGGCCAAGAGATTGACTAGAACCCTCACAATCTCTATAT
DNA 2: ATATAGAGATTGTGAGGGTTCTAGTCAATCTCTTGGCCTAAAAGTTTGCC
binding result (LrWRKY2 [1]; (only one strand printed; duplex implied by 50-bp)): binds

B2: LrCHI2 promoter mutant W-box probe (dsDNA)
DNA 1: GGCAAACTTTTAGGCCAAGAGATTACCTAGAACCCTCACAATCTCTATAT
DNA 2: ATATAGAGATTGTGAGGGTTCTAGGTAATCTCTTGGCCTAAAAGTTTGCC
binding result (LrWRKY2 [1]): no binding

B3: LrCHI2 promoter W-box competitor, unlabeled (dsDNA)
DNA 1: GGCAAACTTTTAGGCCAAGAGATTGACTAGAACCCTCACAATCTCTATAT
DNA 2: ATATAGAGATTGTGAGGGTTCTAGTCAATCTCTTGGCCTAAAAGTTTGCC
binding result (LrWRKY2 [2]): binds
